Measurements published in the supplement of paper PMC9170038.

System: MS2 coat protein
Experiment: apparent KD of MS2 coat protein; designed switch direction (-1 OFF switch, 1 ON switch): -1; higher = weaker reporter binding
Outline: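 The buffer was Tris-HCl pH 7.5 with KCl, MgCl2, BSA, DTT, tRNA and Tween-20. In it, SNAP-549-labelled MS2 coat protein was titrated in doubling steps from 0.7 or 1.5 nM to 3 µM over chip-bound RNA switches transcribed by stalled E. coli RNA polymerase on Illumina chips. Apparent KD is the per-design median over clusters of curve fits to normalised fluorescence.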

[1] = Eterna round: R95, input ligand: microRNA oligo, concentration not stated
[2] = input ligand: microRNA oligo, concentration not stated
[3] = Eterna round: R95, input ligand: FMN 200 uM
[4] = Eterna round: R95, input ligand: none

## AAAACGUGAGGAUAUCCAAUAUAUGACAUGAGGAUCACCCAUGUUUCCACUCGUACCUCCGGAGAAGGCACAAUAA [Ex5 #76] (Eterna round: R97, puzzle: Exclusion 5)
Input ligand: FMN 200 uM
  apparent KD of MS2 coat protein: 37.6 nM
Input ligand: none
  apparent KD of MS2 coat protein: 56.2 nM

## AAGCCUCAAGUUAGGAUAUUAAUAAGGCAAAUUAUUAAGAAGGGACAUGAGGAUCACCCAUGUAAAAUUCUCAC [Biedredi] (Eterna round: R97, puzzle: Brourd's mod of Exclusion 4)
Input ligand: FMN 200 uM
  apparent KD of MS2 coat protein: 140 nM
Input ligand: none
  apparent KD of MS2 coat protein: 57.5 nM

## GUUAGACAUGAGGAUCACCCAUGUGAGGAUAUGAUGCGAUCGUGAUGAAAUGAUCGCAUCAGAAGGCACAUAUG [Mat - Mod of JL D67] (puzzle: Exclusion 1)
[1]
  apparent KD of MS2 coat protein: 123 nM

## GGAGAUCGAGGAUAUACAUGAGGAUCACCCAUGUCCGUAGACUGGGAUCGCGGCAGUGGUAGAAGGUGGAAAAU [Eternabot (L2) Solution 67] (Eterna round: R97, puzzle: Exclusion 3)
Input ligand: FMN 200 uM
  apparent KD of MS2 coat protein: 112 nM
Input ligand: none
  apparent KD of MS2 coat protein: 160 nM

## AAGAACUAAGGAUAUACAUGAGGAUCACCCAUGUCUUUUACAUGUUACUGGCCCGCAUGUAGAAGGUAGAAAAG [Tianrasoed] (Eterna round: R96, puzzle: Exclusion 3)
Input ligand: FMN 200 uM
  apparent KD of MS2 coat protein: 182 nM
[2]
  apparent KD of MS2 coat protein: 74.4 nM
Input ligand: none
  apparent KD of MS2 coat protein: 85 nM

## AUUCCUCCUGUGAGGAUAUGCGUUACGCACCCGUCGCAGAAGGCACAUGAGGAUCACCCAUGUGAGUUACCAAU [BmEX4 A.11] (Eterna round: R97, puzzle: Brourd's mod of Exclusion 4)
Input ligand: FMN 200 uM
  apparent KD of MS2 coat protein: 166 nM
Input ligand: none
  apparent KD of MS2 coat protein: 18.9 nM

## AAACUACUUGGGCUGACACAUGAGGAUCACCCAUGUGGAGGGCAGGAUAUGCCCAUAAAAUUGGCGCAGAAGGGCCCACGUAGA [Tegesousbe] (Eterna round: R96, puzzle: Exclusion NG 3)
Input ligand: FMN 200 uM
  apparent KD of MS2 coat protein: 17.1 nM
[2]
  apparent KD of MS2 coat protein: 6.89 nM
Input ligand: none
  apparent KD of MS2 coat protein: 13.9 nM

## AUCGUGCAGCAAAGCUGUACGAGUACAUGAGGAUCACCCAUGUAGGAUAUGGUACGCAAAGCGUGCUAGAAGGAUAUGUGUAGG [Mat - Exclusion NG 3 - Mod of JL - D84] (Eterna round: R96, puzzle: Exclusion NG 3)
Input ligand: FMN 200 uM
  apparent KD of MS2 coat protein: 69.6 nM
[2]
  apparent KD of MS2 coat protein: 44.6 nM
Input ligand: none
  apparent KD of MS2 coat protein: 57.1 nM

## CGUUGAAUAGGAUAUACAUGAGGAUCACCCAUGUGAAAUUAUAGUGAGGAAAUGAAAAGUAGAAGGGUUUGACA [Mod of Mat 8 - Jieux - Exclusion 3] (Eterna round: R97, puzzle: Exclusion 3)
Input ligand: FMN 200 uM
  apparent KD of MS2 coat protein: 27.6 nM
Input ligand: none
  apparent KD of MS2 coat protein: 30.4 nM

## GAUUGACAUGAGGAUCACCCAUGUGAGGAUAUCGGCCGGACCGUGCCGGCUUCCGUCGCGAGAAGGCGCAUAGG [Exclusion 1 V40] (puzzle: Exclusion 1)
[3]
  apparent KD of MS2 coat protein: 49.5 nM
[1]
  apparent KD of MS2 coat protein: 32 nM
[4]
  apparent KD of MS2 coat protein: 37.3 nM

## GGUAGAGAGCAGGAUAUCUUGGGUAAGUAUUGUAGAGAAGGGCUCACAUGAGGAUCACCCAUGUGGUCCAAGAU [JL Dibiri mod 06] (puzzle: Exclusion 6)
[1]
  apparent KD of MS2 coat protein: 12.8 nM

## AGCAGUAGUAUCCGAUCCUACAUGAGGAUCACCCAUGUAGCUAGACGUGCACGCGAUGCUCGUCAGACUACCAGAUG [salish99_TOv1_r3_035] (puzzle: Sensor v3, turn-off variant 1)
[3]
  apparent KD of MS2 coat protein: 119 nM
[1]
  apparent KD of MS2 coat protein: 200 nM
[4]
  apparent KD of MS2 coat protein: 195 nM

## UGCUGACGAGGAUAUACAUGAGGAUCACCCAUGUUGGUCAAGCGACUUCGGUCGCAAUGUAGAAGGCGUCAGCA [E3/8-A5] (Eterna round: R97, puzzle: Exclusion 3)
Input ligand: FMN 200 uM
  apparent KD of MS2 coat protein: 290 nM
Input ligand: none
  apparent KD of MS2 coat protein: 513 nM

## UAAAUGUGAGGAUAUUCGAUGAACACGGAGACGUGUUUAUCGGAGAAGGCACAUGAGGAUCACCCAUGUUCCUU [Mat - Exclusion 4 - JL Mod - D5] (Eterna round: R97, puzzle: Exclusion 4)
Input ligand: FMN 200 uM
  apparent KD of MS2 coat protein: 216 nM
Input ligand: none
  apparent KD of MS2 coat protein: 24.7 nM

## GACCACUCAGGAUAUCGGACGGGAAACAUGAGGAUCACCCAUGUGAUGCUGAUAUUCGCACGAGAAGGGAGAAUGA [EX5 B.21] (Eterna round: R97, puzzle: Exclusion 5)
Input ligand: FMN 200 uM
  apparent KD of MS2 coat protein: 19.8 nM
Input ligand: none
  apparent KD of MS2 coat protein: 18.8 nM

## AAUAAUAAAGUCAGGAUAUCUAGAGCUGCGGCUCUAGAGAAGGGACAUGAGGAUCACCCAUGUCACUCAAUAAU [BmEx4/3-D3] (Eterna round: R97, puzzle: Brourd's mod of Exclusion 4)
Input ligand: FMN 200 uM
  apparent KD of MS2 coat protein: 18.1 nM
Input ligand: none
  apparent KD of MS2 coat protein: 14.7 nM

## GAUAGAGCAGGAUAUCGAGAUCCGCACAUGAGGAUCACCCAUGUUCGGUCGAAAGACCGACGAGAAGGGCUCUAUC [Omei Ex5 E8] (Eterna round: R97, puzzle: Exclusion 5)
Input ligand: FMN 200 uM
  apparent KD of MS2 coat protein: 639 nM
Input ligand: none
  apparent KD of MS2 coat protein: 603 nM

## UUUUUAUUUUUUUAUUUUGACAUGAGGAUCACCCAUGUAACGAGCAGAUCUUCAUGCAAGCUUUUUGCUCGUCUUAU [Sensor v3 - Turn-off variant 1 - 41] (puzzle: Sensor v3, turn-off variant 1)
[3]
  apparent KD of MS2 coat protein: 69.1 nM
[1]
  apparent KD of MS2 coat protein: 15.5 nM
[4]
  apparent KD of MS2 coat protein: 95.6 nM

## AGGUAACAUGAGGAUCACCCAUGUCAGGAUAUCAGUAAGAUGAGUAUAGAAUAGAGUAUGAGAAGGGACUAUAU [Excluse me! 24 - Jieux - Exclusion 1] (puzzle: Exclusion 1)
[1]
  apparent KD of MS2 coat protein: 30.4 nM

## UUGUUGUAUGUAGGAUAUGCAUGUUAUUAUUAUGCAGAAGGACAUGAGGAUCACCCAUGUGUAUUAUUAUUAUAUAUUAUAUAU [Title] (Eterna round: R96, puzzle: Exclusion NG 1)
[2]
  apparent KD of MS2 coat protein: 15.4 nM

## AAAAGCCUAGGAUAUACUUGAGGAUCACCCAAGUAGGGUCCCAUGGACCCGUCCUCGUGUAGAAGGAGGAAAAG [Dierlabe] (Eterna round: R97, puzzle: Exclusion 3)
Input ligand: FMN 200 uM
  apparent KD of MS2 coat protein: 156 nM
Input ligand: none
  apparent KD of MS2 coat protein: 60.5 nM

## CAGUACUGAGGAUAUACAUGAGGAUCACCCAUGUGCCUAAGGUAGGAUACUACCAUUAGUAGAAGGCAGUACUG [Fiskers Ex 3 828 mod 16] (puzzle: Exclusion 3)
[1]
  apparent KD of MS2 coat protein: 13.6 nM

## ACAUCACAGCUAGGAUAUAUAUGACAUGAGGAUCACCCAUGUUGUCCCAUGUUGACGAAAACCGAAUAGAAGGAGCCACAGAUG [Ex NG2 #3] (Eterna round: R96, puzzle: Exclusion NG 2)
Input ligand: FMN 200 uM
  apparent KD of MS2 coat protein: 91.3 nM
[2]
  apparent KD of MS2 coat protein: 61.5 nM
Input ligand: none
  apparent KD of MS2 coat protein: 67.2 nM

## CCUCGCAGGCAAGGAUAUCCUACAUUGUUCUGGCCCGGGCAUGCUACAUGAGGAUCACCCAUGUGGGAGAAGGUGCGCCACGGC [Design 31] (Eterna round: R96, puzzle: Exclusion NG 2)
Input ligand: FMN 200 uM
  apparent KD of MS2 coat protein: 48.3 nM
[2]
  apparent KD of MS2 coat protein: 28.1 nM
Input ligand: none
  apparent KD of MS2 coat protein: 42.2 nM

## AAUAAGCUAGGAUAUACAUGAGGAUCACCCAUGUCCACGCUCUGGAGGGCUGAAUGAUGUAGAAGGAGCAGUGG [Zabier] (puzzle: Exclusion 3)
[3]
  apparent KD of MS2 coat protein: 17.2 nM
[1]
  apparent KD of MS2 coat protein: 19.2 nM
[4]
  apparent KD of MS2 coat protein: 13.9 nM

## AGUAGUAGUAUCCGAUCGUACAUGAGGAUCACCCAUGUAGCUAGACGUGCACGCGAUGCUCGUCAGACUACCAGAUG [salish99_TOv1_r3_036] (puzzle: Sensor v3, turn-off variant 1)
[3]
  apparent KD of MS2 coat protein: 202 nM
[1]
  apparent KD of MS2 coat protein: 168 nM
[4]
  apparent KD of MS2 coat protein: 225 nM

## UCCCGGGUAGGAUAUGCUAGGGUAUGUUCACUUGAUUUAGGACAUGAGGAUCACCCAUGUAGAAGGGCCCGUCG [Eternabot (L1) Solution 25] (Eterna round: R97, puzzle: Exclusion 2)
Input ligand: FMN 200 uM
  apparent KD of MS2 coat protein: 286 nM
Input ligand: none
  apparent KD of MS2 coat protein: 459 nM

## UGUUGUUACGUAGGAUAUUGUCAACAGGCAGUAGGAUAUGCGAAAGCAGAAGGACCGCCAACAGGCGAGAAGGACGGGUUAACA [pwkr exNG2 2xF7 2xFMN.3] (Eterna round: R96, puzzle: Exclusion NG 2)
Input ligand: FMN 200 uM
  apparent KD of MS2 coat protein: 614 nM
[2]
  apparent KD of MS2 coat protein: 514 nM
Input ligand: none
  apparent KD of MS2 coat protein: 42.7 nM

## GUCGUGCGGCUUUGCUGUACGAGUACAUGAGGAUCACCCAUGUAGGAUAUGGUUCGUUUUGCGUGCUAGAAGGGCGUGCGUUUU [Excl-NG3-LRO16] (Eterna round: R96, puzzle: Exclusion NG 3)
Input ligand: FMN 200 uM
  apparent KD of MS2 coat protein: 22.4 nM
[2]
  apparent KD of MS2 coat protein: 17.3 nM
Input ligand: none
  apparent KD of MS2 coat protein: 22.1 nM

## CCAGCGUAUGUGAGGAUAUGCUGGUCCUUGGAUCAGCAGAAGGCACAUGAGGAUCACCCAUGUGGUGACGUUGG [JL bmx4 3.44] (puzzle: Brourd's mod of Exclusion 4)
[3]
  apparent KD of MS2 coat protein: 19.1 nM
[1]
  apparent KD of MS2 coat protein: 143 nM
[4]
  apparent KD of MS2 coat protein: 411 nM

## UUAAUGUGAGGAUAUCAGGUGUGCUAGAGAACUGGUACAUCUGAGAAGGCACAUGAGGAUCACCCAUGUUCUUC [Mat - Exclusion 4 - Mod of JL - D55] (puzzle: Exclusion 4)
[1]
  apparent KD of MS2 coat protein: 36.8 nM

## AUGGCAAAGUUAGGAUAUGCAGUCUCCAAGACUGCAGAAGGAACGGUCCUCCUCCCUGAAACAUGAGGAUCACCCAUGUAAAGC [Eternabot solution 45] (Eterna round: R96, puzzle: Exclusion NG 1)
Input ligand: FMN 200 uM
  apparent KD of MS2 coat protein: 56.4 nM
[2]
  apparent KD of MS2 coat protein: 53.7 nM
Input ligand: none
  apparent KD of MS2 coat protein: 93.8 nM

## AUAACGUAGCGAGGAUAUACGCGAGAUCGUUGCGUAGAAGGUGUAUCGUUGGACUUGAGGAUCACCCAAGUGAUGAGUCCUUCC [Mutated MS2 EX1.20] (Eterna round: R96, puzzle: Exclusion NG 1)
Input ligand: FMN 200 uM
  apparent KD of MS2 coat protein: 43.8 nM
[2]
  apparent KD of MS2 coat protein: 34.7 nM
Input ligand: none
  apparent KD of MS2 coat protein: 40.7 nM

## UAACAGCGAGGAUAUACAUGAGGAUCACCCAUGUACGGGUCCGGGUUUUCGUCCAAAAGUAGAAGGCGCAAUAA [Laongeedte] (puzzle: Exclusion 3)
[3]
  apparent KD of MS2 coat protein: 177 nM
[1]
  apparent KD of MS2 coat protein: 38.4 nM
[4]
  apparent KD of MS2 coat protein: 41.4 nM
